This note sets out measurements from patent US20240261333A1 (published 2024).

One experiment concerns the target T1, DDX5 (human, UniProt P17844 1-614).
T1 construct: also called NP_001307526.1
Put plainly: co-IP, anti-FLAG, lysate of cells with C-FLAG B3GNT2; mass spectrometry. Here is the method:
Cells were plated in 10-cm cell culture dishes and grown to 60-80% confluency. For each condition, two biological replicates were harvested for co-IP. Cells were washed with PBS and 4 mL of lysis buffer (20 mM HEPES, 1% Triton X-100, 150 mM NaCl, 1 mM EDTA, and 10% glycerol) containing protease inhibitor cocktail was added. Cells were scraped and lysate was incubated at 4° C. under rotary agitation for 1 h. Lysate was centrifuged at 14,000×g for 10 min at 4° C. Supernatant was transferred to a new tube and an aliquot was taken as the input. […] For Western blots, 10 μg/mL Chicken Anti-FLAG (Aves labs ET-DY100) and IgY control (R&D Systems AB-101-C) antibodies were biotinylated (Thermo Fisher Scientific 90407) and added to the respective conditions. Lysates with antibodies were incubated at 4° C. under rotary agitation overnight. For each mL of lysate, 50 μL of Pierce Protein A/G Magnetic Beads (Mass spectrometry; Thermo Fisher Scientific 88803) or Pierce Streptavidin Magnetic Beads (Western blot; Thermo Fisher Scientific 88817) was washed twice with lysis buffer. Lysates with antibodies were added to the beads and incubated at 4° C. under rotary agitation for 4 h. Beads were washed with lysis buffer 3 times and resuspended in lysis buffer for storage.
Magnetic beads were resuspended in 100 mM Tris pH 7.8, reduced, alkylated and digested with trypsin at 37° ° C. overnight. This solution was subjected to solid phase extraction to concentrate the peptides and remove unwanted reagents followed by injection onto a Shimadzu HPLC with fraction collector. Eight fractions were collected and after concentration were injected on a Waters NanoAcquity HPLC equipped with a self-packed Aeris 3 μm C18 analytical column 0.075 mm by 20 cm, (Phenomenex). Peptides were eluted using standard reverse-phase gradients. The effluent from the column was analyzed using a Thermo Orbitrap Elite mass spectrometer (nanospray configuration) operated in a data dependent manner for 54 minutes. The resulting fragmentation spectra were correlated against the known database using Proteome Discover 1.4 (Thermo Fisher Scientific).

The target in the next experiment is T2, ELOC (human, UniProt Q15369 1-112).
T2 construct: also called NP_001191791.1
Briefly: anti-FLAG co-IP from lysate of N-FLAG B3GNT2 cells, mass spectrometry.

A further experiment addresses T3, NTPCR (human, UniProt Q9BSD7 2-190).
T3 construct: also called NP_001316381.1 (+2)
T3 sequence (looked up): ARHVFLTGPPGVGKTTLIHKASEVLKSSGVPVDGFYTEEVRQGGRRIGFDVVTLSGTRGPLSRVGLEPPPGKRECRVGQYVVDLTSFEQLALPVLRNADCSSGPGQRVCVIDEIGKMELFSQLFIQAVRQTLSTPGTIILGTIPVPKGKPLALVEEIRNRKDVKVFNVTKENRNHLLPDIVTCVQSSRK
The experiment is described as above.

Another experiment has as its target T4, IFI16 (human, UniProt Q16666-2 1-729, limits assumed).
T4 construct: also called NP_001193496.1 (+3)
T4 sequence (looked up): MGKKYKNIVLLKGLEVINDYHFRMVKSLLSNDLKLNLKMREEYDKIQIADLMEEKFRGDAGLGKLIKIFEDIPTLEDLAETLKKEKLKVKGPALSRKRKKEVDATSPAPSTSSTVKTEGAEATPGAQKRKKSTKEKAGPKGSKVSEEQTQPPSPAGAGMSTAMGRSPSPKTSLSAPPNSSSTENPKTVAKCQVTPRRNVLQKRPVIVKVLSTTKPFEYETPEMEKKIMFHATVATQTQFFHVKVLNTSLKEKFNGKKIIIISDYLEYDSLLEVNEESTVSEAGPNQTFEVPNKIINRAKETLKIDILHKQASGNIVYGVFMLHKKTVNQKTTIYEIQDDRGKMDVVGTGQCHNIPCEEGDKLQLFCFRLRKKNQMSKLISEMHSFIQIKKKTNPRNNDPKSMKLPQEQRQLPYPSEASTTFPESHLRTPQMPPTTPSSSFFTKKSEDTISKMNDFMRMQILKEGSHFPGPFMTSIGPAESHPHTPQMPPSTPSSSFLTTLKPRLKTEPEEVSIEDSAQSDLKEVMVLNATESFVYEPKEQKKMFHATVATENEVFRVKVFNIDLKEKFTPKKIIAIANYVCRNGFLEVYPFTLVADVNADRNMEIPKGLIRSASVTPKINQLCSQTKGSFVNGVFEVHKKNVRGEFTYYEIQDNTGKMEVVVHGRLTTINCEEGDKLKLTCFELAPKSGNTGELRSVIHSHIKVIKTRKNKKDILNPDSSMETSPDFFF
The experiment is described as above.

Another experiment concerns the target T5, ERP44 (human, UniProt Q9BS26 30-406).
T5 construct: also called NP_055866.1
T5 sequence (looked up): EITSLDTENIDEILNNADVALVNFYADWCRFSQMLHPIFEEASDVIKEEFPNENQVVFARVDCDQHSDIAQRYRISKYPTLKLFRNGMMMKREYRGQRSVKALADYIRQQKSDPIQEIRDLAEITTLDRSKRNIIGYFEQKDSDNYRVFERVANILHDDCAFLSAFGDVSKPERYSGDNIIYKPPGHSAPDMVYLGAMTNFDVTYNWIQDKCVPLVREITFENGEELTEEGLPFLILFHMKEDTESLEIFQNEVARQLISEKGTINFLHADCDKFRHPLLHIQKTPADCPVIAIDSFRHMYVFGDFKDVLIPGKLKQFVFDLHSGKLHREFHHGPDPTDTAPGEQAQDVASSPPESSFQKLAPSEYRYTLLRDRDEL
Described as above.

A further experiment has as its target T6, SLC25A22 (human, UniProt Q9H936 1-323).
T6 construct: also called NP_001177990.1
T6 sequence (looked up): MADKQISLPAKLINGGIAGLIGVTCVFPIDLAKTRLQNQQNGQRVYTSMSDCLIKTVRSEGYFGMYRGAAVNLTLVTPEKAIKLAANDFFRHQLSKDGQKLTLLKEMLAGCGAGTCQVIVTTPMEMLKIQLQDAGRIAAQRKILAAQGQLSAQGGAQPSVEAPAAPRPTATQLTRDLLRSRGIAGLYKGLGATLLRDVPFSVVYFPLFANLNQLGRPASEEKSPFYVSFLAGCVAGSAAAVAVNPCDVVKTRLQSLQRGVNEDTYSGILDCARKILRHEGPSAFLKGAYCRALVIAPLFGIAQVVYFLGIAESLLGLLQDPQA
Described as above.

T1 sequence (P17844 whole entry): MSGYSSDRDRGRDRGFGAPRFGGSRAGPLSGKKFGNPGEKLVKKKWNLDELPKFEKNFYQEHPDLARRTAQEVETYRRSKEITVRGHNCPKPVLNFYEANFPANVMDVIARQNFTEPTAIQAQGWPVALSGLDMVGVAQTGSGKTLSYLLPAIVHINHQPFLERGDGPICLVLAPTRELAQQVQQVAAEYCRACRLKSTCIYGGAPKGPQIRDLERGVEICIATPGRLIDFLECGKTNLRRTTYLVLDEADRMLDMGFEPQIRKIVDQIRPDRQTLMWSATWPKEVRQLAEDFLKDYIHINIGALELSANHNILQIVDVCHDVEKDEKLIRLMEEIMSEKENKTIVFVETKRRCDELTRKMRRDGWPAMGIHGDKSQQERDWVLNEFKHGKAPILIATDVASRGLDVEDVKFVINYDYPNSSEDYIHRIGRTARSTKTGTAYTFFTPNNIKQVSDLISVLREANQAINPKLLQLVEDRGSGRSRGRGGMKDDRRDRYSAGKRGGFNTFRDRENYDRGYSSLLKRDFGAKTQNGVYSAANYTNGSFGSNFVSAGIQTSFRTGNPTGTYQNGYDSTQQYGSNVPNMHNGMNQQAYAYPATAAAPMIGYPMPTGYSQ
T2 sequence (Q15369 whole entry): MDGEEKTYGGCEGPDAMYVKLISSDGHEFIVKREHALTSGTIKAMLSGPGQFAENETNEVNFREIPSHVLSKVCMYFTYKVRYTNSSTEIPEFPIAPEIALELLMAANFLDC

B1: C-terminal FLAG tagged B3GNT2 (enzyme, human, UniProt Q9NY97 1-397, looked up)
chain: MSVGRRRIKLLGILMMANVFIYFIMEVSKSSSQEKNGKGEVIIPKEKFWKISTPPEAYWNREQEKLNRQYNPILSMLTNQTGEAGRLSNISHLNYCEPDLRVTSVVTGFNNLPDRFKDFLLYLRCRNYSLLIDQPDKCAKKPFLLLAIKSLTPHFARRQAIRESWGQESNAGNQTVVRVFLLGQTPPEDNHPDLSDMLKFESEKHQDILMWNYRDTFFNLSLKEVLFLRWVSTSCPDTEFVFKGDDDVFVNTHHILNYLNSLSKTKAKDLFIGDVIHNAGPHRDKKLKYYIPEVVYSGLYPPYAGGGGFLYSGHLALRLYHITDQVHLYPIDDVYTGMCLQKLGLVPEKHKGFRTFDIEEKNKNNICSYVDLMLVHSRKPQEMIDIWSQLQSAHLKC
notes: Overexpressed in cells and pulled down from the lysate with mouse anti-FLAG antibody; also called C-FLAG B3GNT2; C-term flag; not shown: C-terminal FLAG tag
Consider B1, for which the “co-IP mass spectrometry count” value in the experiment with DDX5 came to 22.

B2: N-terminal FLAG tagged B3GNT2 (enzyme, human, UniProt Q9NY97 1-397, looked up)
chain: MSVGRRRIKLLGILMMANVFIYFIMEVSKSSSQEKNGKGEVIIPKEKFWKISTPPEAYWNREQEKLNRQYNPILSMLTNQTGEAGRLSNISHLNYCEPDLRVTSVVTGFNNLPDRFKDFLLYLRCRNYSLLIDQPDKCAKKPFLLLAIKSLTPHFARRQAIRESWGQESNAGNQTVVRVFLLGQTPPEDNHPDLSDMLKFESEKHQDILMWNYRDTFFNLSLKEVLFLRWVSTSCPDTEFVFKGDDDVFVNTHHILNYLNSLSKTKAKDLFIGDVIHNAGPHRDKKLKYYIPEVVYSGLYPPYAGGGGFLYSGHLALRLYHITDQVHLYPIDDVYTGMCLQKLGLVPEKHKGFRTFDIEEKNKNNICSYVDLMLVHSRKPQEMIDIWSQLQSAHLKC
notes: Bait of the co-IP; pulled down from cell lysate with mouse anti-FLAG antibody; also called N-FLAG B3GNT2; N-term FLAG; not shown: N-terminal FLAG tag
In the case of B2, the “co-IP mass spectrometry count” value in the experiment with ELOC, with NTPCR, with IFI16, with ERP44 and with SLC25A22 was 0 in each case.
